US20230272070A1 (published 2023)
Residue numbers refer to the chain shown, from its start.

B1: F6 antibody (antibody, human IgG1, V domains shown)
VH: EVQLVQSGAEVKKPGESLKISCKGSGYSFTSYWIGWVRQMPGKGLEWMGIIYPGDSDTRYSPSFQGQVTISADKSISTAYLQWSSLKASDTAMYYCARVWYYDFWSGADAFDIWGQGTLVTVSS
VL: EIVMTQSPATLSVSPGERATLSCRASQSVSSNLAWYQQKPGQAPRLLIYGASTRATGIPARFSGSGSGTEFTLTISSLQSEDFAVYYCQQGSLEAPQTFGQGTKVEIK
notes: Tested as human IgG1; also called human IgG1 F6 anti-CD19 antibody
B2: 7F1 antibody (antibody, human IgG1, V domains shown)
VH: EVQLVQSGAEVKKPGESLKISCKGSGYSFTSYWIGWVRQMPGKGLEWMGIIYPGDSDTRYSPSFQGQVTISADKSISTAYLQWSSLKASDTAMYYCARGDYWTGFAYWGQGTLVTVSS
VL: QSVLTQPPSVSAAPGQKVTISCSGSSSNIGNNYVSWYQQLPGTAPKLLIYDNNKRPSGIPDRFSGSKSGTSATLGITGLQTGDEADYYCGTWDLGWNSVFGGGTKLTVL
notes: Tested as human IgG1; also called human IgG1 7F1 anti-CD19 antibody
B3: 10D8 antibody (antibody, human IgG1, V domains shown)
VH: QVQLVQSGAEVKKPGSSVKVSCKASGGTFSSYAISWVRQAPGQGLEWMGGIIPIFGTANYAQKFQGRVTITADESTSTAYMELSSLRSEDTAVYYCARDRGYDYVWGSYRYGAFDIWGQGTLVTVSS
VL: QSALTQPASVSGSPGQSITISCTGTSSDVGGYNYVSWYQQHPGKAPKLMIYEVSNRPSGVSNRFSGSKSGNTASLTISGLQAEDEADYYCSSYDVWVPHMVFGGGTKLTVL
notes: Tested as human IgG1; also called human IgG1 10D8 anti-CD19 antibody
B4: 9G8 antibody (antibody, human IgG1, V domains shown)
VH: EVQLVQSGAEVKKPGESLKISCKGSGYSFTSYWIGWVRQMPGKGLEWMGIIYPGDSDTRYSPSFQGQVTISADKSISTAYLQWSSLKASDTAMYYCARGVSGIYNLHGFDIWGQGTLVTVSS
VL: DIQMTQSPSSLSASVGDRVTITCRASQSISSYLNWYQQKPGKAPKLLIYAASSLQSGVPSRFSGSGSGTDFTLTISSLQPEDFATYYCQQGRFGSPFTFGQGTKVEIK
notes: also called human IgG1 9G8 anti-CD19 antibody
B5: 7F11 antibody (antibody, human IgG1, V domains shown)
VH: B4 VH
VL: B4 VL with R92M, F93W, G94D, S95N
notes: Tested as human IgG1; also called human IgG1 7F11 anti-CD19 antibody
B6: 5F5 antibody (antibody, human IgG1, V domains shown)
VH: B4 VH with V100I
VL: B4 VL with G91A, R92S, F93L, G94D, F97L
notes: Tested as human IgG1; also called human IgG1 5F5 anti-CD19 antibody

Molecular target: T1, human CD19 (human, UniProt P15391 20-556)
T1 construct: whole, on cells; also called huCD19
T1 sequence (looked up): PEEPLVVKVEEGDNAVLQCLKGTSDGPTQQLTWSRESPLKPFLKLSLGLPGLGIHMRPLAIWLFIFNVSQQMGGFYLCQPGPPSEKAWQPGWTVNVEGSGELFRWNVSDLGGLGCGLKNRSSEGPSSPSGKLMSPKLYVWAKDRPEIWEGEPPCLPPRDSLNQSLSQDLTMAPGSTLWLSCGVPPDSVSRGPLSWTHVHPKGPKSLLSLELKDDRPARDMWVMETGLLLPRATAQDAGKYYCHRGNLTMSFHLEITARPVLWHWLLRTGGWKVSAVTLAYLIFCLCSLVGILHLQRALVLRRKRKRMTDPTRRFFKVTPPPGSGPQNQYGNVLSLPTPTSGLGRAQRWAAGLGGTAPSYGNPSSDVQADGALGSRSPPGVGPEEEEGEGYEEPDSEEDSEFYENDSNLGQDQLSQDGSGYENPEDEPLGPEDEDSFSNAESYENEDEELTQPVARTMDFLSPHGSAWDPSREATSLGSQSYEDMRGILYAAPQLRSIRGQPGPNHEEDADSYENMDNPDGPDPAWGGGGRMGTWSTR
Assay: flow cytometry on human versus cynomolgus PBMC; reference: binding to cynomolgus PBMC
Method: The ability of various anti-CD19 antibodies of the disclosure to bind various peripheral blood mononuclear cells (PBMC). Human and cynomolgus PBMC from frozen aliquots in citrate buffer were tested. […] The PBMC were labelled with anti-CD20-PE monoclonal antibody (mAb), anti-CD14-FITC mAb, and anti-CD3-PerCP mAb cross-reactive both to human and cynomolgus species. Cell surface bound hIgG1 were detected with a mouse anti-human IgG Fc-APC mAb. FACS gating was performed with the anti-CD20 mAb for the B lymphocyte population, with the anti-CD3 for the T lymphocyte population and with anti-CD14 for the monocyte population.

Fold higher binding on human than on cynomolgus PBMC, ≤ 10 fold:
B1
B2
B3
B4
B5
B6
